Test results taken from publication PMC8556260.

Assays:
[1] = molecular target: PIR91 ribosome-bound nascent chain (full-length PIR RNC, wild type) (UniProt O88900); assay: cross-linking; titration of resuspended PIR91 RNCs with DnaK/DnaJ/GrpE (5:1:2, up to 50/10/25 µM), ADP, 50 mM KCl, 5 mM Mg2+, then EDC 80 mM, 30 min, 30 °C; fraction cross-linked to DnaK fitted to a two-state model; apparent
[2] = molecular target: PIR91 ribosome-bound nascent chain (full-length PIR RNC, wild type) (UniProt O88900); assay: cross-linking; titration of resuspended PIR91 RNCs with TF (up to 40 µM), 10 min on ice, then EDC 80 mM, 30 min, 30 °C; standard resuspension buffer, 10 mM Mg(OAc)2, pH 7.0; fraction cross-linked fitted to a two-state model; apparent

Kd [1]	Kd [2]	Substance
109 µM	–	E. coli Hsp70 (DnaK), purified, ADP-bound, added as K/J/E mixture (from UniProt P0A6Y8 1-638) (natural protein)
–	3.8 µM	Trigger factor (TF), purified wild type (from UniProt P0A850 1-432) (natural protein)
